From patent US20180282430A1 (Bayer, published 2018)
Changes are numbered by the printed parent chain. In names and notes the source's numbering stands.

T1: Human TFPI (tissue factor pathway inhibitor) (human, UniProt P10646 29-304, limits assumed)
T1 construct: Coated at 1 ug/ml on Maxisorb plates for the ELISA; For the Biacore work the human TFPI came from American Diagnostica
T1 sequence (looked up): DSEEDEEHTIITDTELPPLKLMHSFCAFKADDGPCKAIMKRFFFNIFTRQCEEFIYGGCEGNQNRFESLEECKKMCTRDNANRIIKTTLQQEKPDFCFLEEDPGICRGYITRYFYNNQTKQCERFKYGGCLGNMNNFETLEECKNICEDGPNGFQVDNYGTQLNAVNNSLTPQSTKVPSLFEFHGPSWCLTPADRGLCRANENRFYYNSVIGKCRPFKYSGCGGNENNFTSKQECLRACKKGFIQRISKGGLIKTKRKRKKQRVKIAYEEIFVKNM

B1: 2A8-g200 Fab (wild type) (Fab, V domains shown)
VH: EVQLVESGGGLVQPGGSLRLSCAASGFTFSSYGMDWVRQAPGKGLEWVSSIRGSRGSTYYADSVKGRFTISRDNSKNTLYLQMNSLRAEDTAVYYCARLYRYWFDYWGQGTLVTVSS
VL: SYELTQPPSVSVSPGQTARITCSGDNLPKYYAHWYQQKPGQAPVVVIFYDVNRPSGIPERFSGSNSGNTATLTISGTQAMDEADYYCQAWWSSTPVFGGGTKLTVLG
notes: Fab format, expressed in E. coli; also called wt gA200Fab; wild type 2A8-g200 Fab
B2: 2A8-g200 Fab VL-Y31H (Fab, V domains shown)
VH: B1 VH
VL: B1 VL with Y31H
notes: Member of the 2A8-g200 Fab histidine scanning library
B3: 2A8-g200 Fab VH-Y100H (Fab, V domains shown)
VH: B1 VH with Y100H
VL: B1 VL
notes: as for B2
B4: 2A8-g200 Fab VH-S50H (Fab, V domains shown)
VH: B1 VH with S50H
VL: B1 VL
B5: 2A8-g200 Fab VH-Y32H (Fab, V domains shown)
VH: B1 VH with Y32H
VL: B1 VL
notes: as for B2
B6: 2A8-g200 Fab VL-W90H (Fab, V domains shown)
VH: B1 VH
VL: B1 VL with W90H
notes: as for B2
B7: 2A8-g200 Fab VH-Y102H (Fab, V domains shown)
VH: B1 VH with Y102H
VL: B1 VL
notes: as for B2
B8: 2A8-g200 Fab VL-L27H (Fab, V domains shown)
VH: B1 VH
VL: B1 VL with L27H
notes: as for B2
B9: 2A8-g200 Fab VL-V45H (Fab, V domains shown)
VH: B1 VH
VL: B1 VL with V45H
notes: as for B2
B10: 2A8-g200 Fab VL-Y49H (Fab, V domains shown)
VH: B1 VH
VL: B1 VL with Y49H
notes: as for B2
B11: 2A8-g200 Fab VL-F48H (Fab, V domains shown)
VH: B1 VH
VL: B1 VL with F48H
notes: as for B2

Biological target: T1, Human TFPI (tissue factor pathway …)
Test: ELISA on plate-coated human TFPI; Fab expression media bound, then 1 h at 37 C in PBS pH 7.0; amplex red
Protocol: (§1) Human TFPI, 1 μg/ml, was used to coat Maxisorb™ microtiter plates. Expression media, 100 μl, from each member of the His scan library, was added to two wells on the plate, in a pair wise fashion. The plate was incubated on a shaker at room temperature for 1 hr. The plate was washed 3× with PBST. PBS (pH 7.0) was added to one well of the pair, 100 mM pH6.0 Citrate buffer was added to the second well of the same pair. The plate was incubated at 37° C. with shaking for one hr. The plate was washed 3× with PBST and developed using amplex red. A pH 7.0/pH 6.0 ratio was established to rank the sensitive muteins. The ratio for wild type 2A8-g200 Fab was 1.0.

Row | Binder | TFPI ELISA signal, pH 7.0
1 | B1 | 5250
2 | B2 | 913
3 | B3 | 2540
4 | B4 | 2160
5 | B5 | 3560
6 | B6 | 1830
7 | B7 | 3310
8 | B8 | 3420
9 | B9 | 2200
10 | B10 | 2660
11 | B11 | 2070

Biological target: T1, Human TFPI (tissue factor pathway …)
Test: pH 6.0 TFPI dissociation ELISA; ratio of the signals at pH 7.0 and pH 6.0
Protocol: as §1

Row | Binder | Ratio pH 7.0/pH 6.0
12 | B1 | 0.98
13 | B2 | 6.84
14 | B3 | 1.78
15 | B4 | 1.32
16 | B5 | 1.38
17 | B6 | 1.21
18 | B7 | 3.07
19 | B8 | 1.3
20 | B9 | 1.24
21 | B10 | 1.3
22 | B11 | 1.33

Biological target: T1, Human TFPI (tissue factor pathway …)
Test: SPR (Biacore T200): human TFPI amine-coupled on a CM4 or CM5 chip, Fab variant injected, dissociation followed in pH 7.4 or pH 6.0 buffer
Protocol: Purified 2A8-g200 variants in Fab format (referred to as wt gA200Fab in Table 1) were tested using surface plasmon resonance (Biacore). Surface plasmon resonance (Biacore T200) was used to measure the dissociation rate of the antibodies. […] Purified 2A8-g200 variants were injected, following by 40-minute dissociation either at pH7.4 or pH6.0 buffer. The antibodies were diluted in HBS-P buffer at different concentrations and the flow rate was set to 50 μl/min. After each round of antibody injection, the chip was regenerated by injecting 90 μl of pH 1.5 glycine. The data set was evaluated using BIAevaluation Software.
The dissociation constant (kd) for each 2A8-g200 variant antibody was determined by using a model with the following equation: […]
where R is the response at time t, R₀ is the response at time t_{0.}—the start of dissociation, offset allows for a residual response at the end of complete dissociation. A ratio of kd at pH 6.0 to kd at pH 7.4 was calculated for each 2A8-g200 variant. A mutation with observed ratio of […] was considered as pH-sensitive mutation and could be used for construction of IgG variants of 2A8-g200.

Row | Binder | fold (x) printed after the variant's name; the sheet does not name it, paragraph 57 speaks of the ratio of kd at pH 6.0 to kd at pH 7.4
23 | B2 | 3.2 x
24 | B8 | 2.7 x

Biological target: T1, Human TFPI (tissue factor pathway …)
Test: ELISA on plate-coated human TFPI; Fab expression media bound, then 1 h at 37 C in 100 mM citrate pH 6.0; amplex red
Protocol: as §1

Row | Binder | TFPI ELISA signal, pH 6.0
25 | B1 | 5350
26 | B2 | 133
27 | B3 | 1430
28 | B4 | 1640
29 | B5 | 2580
30 | B6 | 1510
31 | B7 | 1080
32 | B8 | 2640
33 | B9 | 1770
34 | B10 | 2040
35 | B11 | 1550
